# PMC10101019
# Target: DENV-2 particles (dengue virus 2)
binder,measurement,value
Trx-tagged mucin protein of Aedes aegypti (natural protein) MQTFACICLISILISESFGKFDTPADPVFSDDVTDYDSPSGIDYYDVKDYPMIPGELNVYRKTKPGGLLPSSDVDMKGKMLTSKEVTTKPRNIPTRQHRVQNRIRKPARFSTVVPLPTAALTAPQCILQRTTPKPLWRREGGRVIIDGSDPNIDIFKVMRESRRRPTEAPKPTGNLPMRDIVGNEIKPETASNQFLVLGSVLRCRETKQEVHEHRTRNSRVEISDPTVTGLTVEYPPNIIRLTHRFESTSTGGKAFVFRTMNGKQGILKLKWYSCPTRNSG,"DENV-2 titer by focus-forming assay 6 days after microinjection of DENV-2 particles with anti-mucin antibodies into Ae. aegypti, against DENV-2 with PBS or pre-immune serum (% reduction in DENV-2 titer)",12.5
